Assay results as given in patent US20250346665A1 (BEIJING IMMUNOAH PHARMATECH, published 2025).
Read-outs that look alike come from different tables or passages of the source.

What was measured:
[1] = molecular target: T1, Human CLDN18.2, NP_001002026.1, claudin-18 isoform 2 [Homo sapiens] (human); experiment: flow cytometry on 293T-18.2 cells
[2] = molecular target: T1, Human CLDN18.2, NP_001002026.1, …; experiment: flow cytometry titration on 293T-18.2 cells
Description: Each well was washed twice with 400 μl FACS buffer. The secondary antibody of PE anti-mouse IgG Fc was added, and incubated for 1 hour before detection by flow cytometry.

[3] = molecular target: T1, Human CLDN18.2, NP_001002026.1, …; experiment: flow cytometry titration on 293T-18.2 cells; remark: listed apart in the source
Description: (§1) 10 μL of each diluted antibody was added to 100 μL of the above cell samples, mixed and incubated at room temperature for 1 hour.
Each well was washed twice with 400 μl FACS buffer. The secondary antibody of the PE anti-human IgG Fc (Biolegend, Cat409304) was added and incubated for 1 hour before detection by flow cytometry.

[4] = molecular target: T1, Human CLDN18.2, NP_001002026.1, …; experiment: cell-based or functional assay
[5] = molecular target: T1, Human CLDN18.2, NP_001002026.1, …; experiment: flow cytometry titration on 293T-18.2 cells; remark: listed apart in the source
Description: as §1
Each well was washed twice with 400 μl FACS buffer. The secondary antibody of the PE anti-human IgG Fc was added and incubated for 1 hour before detection by flow cytometry.

T1 sequence (chain, as listed by the source limits assumed): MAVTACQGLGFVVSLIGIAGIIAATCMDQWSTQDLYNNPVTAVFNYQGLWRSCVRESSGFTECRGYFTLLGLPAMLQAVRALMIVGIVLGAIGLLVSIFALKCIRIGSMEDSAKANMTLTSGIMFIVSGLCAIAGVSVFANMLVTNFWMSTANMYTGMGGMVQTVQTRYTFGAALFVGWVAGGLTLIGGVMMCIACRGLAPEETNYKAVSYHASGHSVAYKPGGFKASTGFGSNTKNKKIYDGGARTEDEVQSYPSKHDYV

B1: murine anti-CLDN18.2 monoclonal antibody secreted by the hybridoma 7D10-1 (antibody, V domains shown)
VH: QVQLKESGGNLVQPGGSRKLSCAASGFSFSSFGMHWVRQAPEKGLEWVAYISSGSRTIYYADTVKGRFTISRDNAKNTLFLQMTSLRSEDTAMYYCTRYYYGNSFDYWGQGTTLTVSS
VL: DIVMTQAPSSLTVTTGEKVTLACKSSQSLFNTGNQKNYLTWYQQKPGQPPKLLIYWASTRESGVPDRFTGSGSGTAFTLTISSVQAEDLAVYYCQNNYNFPLTFGAGTKLELK
notes: Murine hybridoma antibody detected with PE anti-mouse IgG Fc; also called murine anti-CLDN18.2 antibody
EC50 strength as a multiple of control antibody MAb362 [1]: ~3 fold
EC50 [2]: 0.385 µg/mL

B2: 7D10-1 chimeric antibody (antibody, human IgG1, kappa, L234A L235A, V domains shown)
VH: QVQLKESGGNLVQPGGSRKLSCAASGFSFSSFGMHWVRQAPEKGLEWVAYISSGSRTIYYADTVKGRFTISRDNAKNTLFLQMTSLRSEDTAMYYCTRYYYGNSFDYWGQGTTLTVSS
VL: DIVMTQAPSSLTVTTGEKVTLACKSSQSLFNTGNQKNYLTWYQQKPGQPPKLLIYWASTRESGVPDRFTGSGSGTAFTLTISSVQAEDLAVYYCQNNYNFPLTFGAGTKLELKR
notes: Murine variable regions with a human constant region; also called anti-CLDN18.2 chimeric antibody
EC50 strength as a multiple of control antibody MAb362 [1]: ~10 fold
EC50 [3]: 0.4 µg/mL

B3: 7D10-1 humanized antibody (antibody, V domains shown)
VH: QVQLVESGGGLVKPGGSLRLSCAASGFSFSSFGMHWVRQAPGKGLEWVAYISSGSRTIYYADTVKGRFTISRDNAKNSLYLQMNSLRAEDTAVYYCTRYYYGNSFDYWGQGTTVTVSS
VL: DIQMTQSPSSLSASVGDRVTITCKSSQSLFNTGNQKNYLTWYQQKPGKAPKLLIYWASTRESGVPSRFSGSGSGTDFTLTISSLQPEDFATYYCQNNYNFPLTFGQGTRLEIK
notes: Cloned into the same pQKX1/pQKX2 vectors as the chimeric antibody and detected with PE anti-human IgG Fc; a human IgG1 isotype control was used in the ADCC assay; also called anti-CLDN18.2 humanized antibody
EC50 of ADCC [4]: 180 nM
EC50 strength as a multiple of control antibody MAb362 [1]: ~4 fold
EC50 [5]: 0.909 µg/mL
